Measurements reported in article PMC10602362, “Interchangeability of class I and II fumarases in an obligate methanotroph Methylotuvimicrobium alcaliphilum 20Z” (PLOS ONE, 2023).
One block for each molecule: values may come before it.

Tests used:
FumI (class I fumarase) [1] = biological target: T1, FumI (class I fumarase) (Methylotuvimicrobium alcaliphilum, UniProt G4T1T1); assay: coupled assay with NADP-dependent malic enzyme at […] nm; format: biochemical; conditions: activator; 1 mM succinate, 1 mM fumarate, 50 mM Tris-HCl pH 8.5, 5 mM MgCl2; coupling enzyme present
T1 construct: gene fumA; full length, 507 residues, His6-tagged, pET22b(+), E. coli BL21(DE3); homodimer (130 kDa); aerobically purified, stabilised with iron-sulfur mixture; [4Fe-4S]

FumI (class I fumarase) [2] = biological target: T1, FumI (class I fumarase); assay: spectrophotometric hydration assay at […] nm, Hill fit; format: biochemical; conditions: 50 mM Tris-HCl pH 8.5, optimal conditions, aerobic; Hill n = 1.4 ± 0.2; read-out: Class I fumarase / S0.5
FumC (class II fumarase) [3] = biological target: T2, FumC (class II fumarase) (Methylotuvimicrobium alcaliphilum, UniProt G4SWR5); conditions: read-out: Class II fumarase (FumС) / Km(S0.5*); 50 mM Tris-HCl pH 8.0; text b40 prints 0.10 ± 0.001 mM
FumC (class II fumarase) [4] = biological target: T2, FumC (class II fumarase); assay: coupled assay with NADP-dependent malic enzyme at […] nm; format: biochemical; parameters: full length (gene 1404 bp), His6-tagged, pET22b(+), E. coli BL21(DE3); homotetramer (184 kDa); conditions: 1 mM fumarate, 50 mM Tris-HCl pH 8.0, coupling enzyme present
purified protein [5] = substrate: O=C(O)C[C@H](O)C(=O)O; assay: purified protein
purified protein [6] = substrate: C/C(=C\C(=O)O)C(=O)O; assay: purified protein; format: biochemical, Methylotuvimicrobium alcaliphilum; conditions: 50 mM Tris-HCl pH 8.5, aerobic, Hill n = 1.4 ± 0.1, error in Table 1 printed ± 0.2
[7] = 50 mM Tris-HCl pH 8.5, aerobic, Hill n = 1.7 ± 0.1, error in text b33 ± 0.03
[8] = 50 mM Tris-HCl pH 8.5, Hill n = 2.1 ± 0.4

fold activity at 1 mM (FumI (class I fumarase) [1]): ~ 1.5 fold
Molecule: O=C(O)CCC(=O)O [succinate]

Km (FumI (class I fumarase) [2]): 280 ± 40 µM
Km (FumC (class II fumarase) [3]): 110 ± 4 µM
Molecule: O=C(O)/C=C/C(=O)O [fumarate]

% reduction of activity at 1 mM (FumC (class II fumarase) [4]; 1 mM citrate): 50%
Molecule: O=C(O)CC(O)(CC(=O)O)C(=O)O [citrate]

% reduction of activity at 1 mM (FumC (class II fumarase) [4]; 1 mM phosphoenolpyruvate): 30%
Molecule: C=C(OP(=O)(O)O)C(=O)O [phosphoenolpyruvate]

B1: FumI (class I fumarase) (Methylotuvimicrobium alcaliphilum 20Z) (protein)
chain: MTLIRQEDFIQSIFESLQYISYYHPQDFIEAMYRAYQNEQSSAAKDAIAQILINSRMCAEGHRPICQDTGIVVVFLKIGMNVQWDAQISITDMVNEGVRRAFMHPDNILRASILSDPAGKRINTRDNTPAVVYMEVVPGDRVEVEIAAKGGGSEAKSKFAMLNPSDSIVDWVMQTVPTMGAGWCPPGILGIGIGGTAEKAMLLAKQACMESVDIHELIARGPVNALEELRLELYEKVNALGIGAQGMGGLTTVLDIKIKDYPAHAANKPVAMIPNCAATRHIHFELDGSGPAELPVPCLEDWPKIAWEGGNSAKRVNLDTVTKDEIATWRPGETLLLSGTLLTGRDAAHKRIVEMLERGEALPEGVDFTNKFIYYVGPVDPVRDEVVGPAGPTTATRMDKFTEAMLAQTGLIGMIGKAERGPVAIEAIKKHRAVYLMAVGGAAYLVSKAIRKARVVAFEDLGMEAVHEFVIEDMPVTVAVDVDGESIHKSGPKQWQAKIGKIPVVSK
notes: full length, 507 residues, His6-tagged, pET22b(+), E. coli BL21(DE3); homodimer (130 kDa); aerobically purified, stabilised with iron-sulfur mixture; [4Fe-4S]
K0.5 (purified protein [5]; [7]): 0.55 ± 0.02 mM
kcat/Km (purified protein [5]; [7]): 180 M⁻¹ s⁻¹
K0.5 (purified protein [6]): 0.24 ± 0.02 mM
kcat/Km (purified protein [6]): 750 M⁻¹ s⁻¹

B2: FumC (class II fumarase) (Methylotuvimicrobium alcaliphilum 20Z) (protein)
chain: MTIGSSAGRIESDALGSIEVPADKYWGAQTQRSLHYFAIGDERLPRPLIRALGIVKRCAALSNIAQNKLDEKLGRAIVDAAQEVIDGALDEHFPLVIWQTGSGTQSNMNANEVIANRVNERLGGALGSKSPVHPNDHCNLSQSSNDVFPSAMHIAAVEQLQCLLIPSLQRLQKTLSDKSQAWADIIKIGRTHLQDATPLSLGQEFSGYATQVQLSIERLQDSLKRLYPLAQGGTAVGTGLNSSQGFAELFADEVAKFTGHPFTSAANKFEAMAAHDALVELSGVLNCSAVSLNKIANDIRLLSSGPRSGLGELILPANEPGSSIMPGKINPTQCEALTMVCTQVIGNHTTVTLAGAQGHLELNTFKPVMIYNVLQSIRLLGDAAHSFTEHCVAGIQPNAERIAELMEQSLMLVTALVPQIGYDKAAQIAKTAMQNGTTLREEAIAVGLVSAEQFDAIVRPERMIMPK
K0.5 (purified protein [5]; [8]): 0.14 ± 0.01 mM
kcat/Km (purified protein [5]; [8]): 1000 M⁻¹ s⁻¹
